How the values were obtained:
complement factor C3b [1] = molecular target: T1, complement factor C3b (UniProt P01024 23-667; P01024 749-1663); test: SPR, C3b amine-coupled (4030 RU), 1:1 steady-state affinity fit
Text: FIG. 3: C3b binding activity of miniFH and Fc-fusion variants of miniFH. Surface plasmon resonance (SPR) sensorgrams for C3b binding of miniFH (A), miniFH-Fc (C), Fc-miniFH (E) and Fc-miniFH-short (G) (assayed at a concentration range as specified; 4030 RU of C3b were deposited by amine). (B) Respective concentration response plots with fitted affinity (1:1 steady-state affinity fit) for C3b binding of miniFH (B), miniFH-Fc (D), Fc-miniFH (F) and Fc-miniFH-short (H) are shown. The affinity equilibrium constant is stated in the panes.
Surface plasmon resonance experiments were performed at 25° C. on a Reichert SR7500DC SPR instrument in PBS containing 0.005% Tween20 at a flow of 25 μl/min. 4030 response units (RU) of C3b were immobilized onto a carboxymethyldextran (CMD) 500 sensor chip (Xantec) and binding to amine coupled C3b was assayed. The analytes were injected at the indicated concentrations. To probe binding, a concentration series of miniFH or Fc fusions of miniFH were injected (at 25 μl/min for 2.5 min) followed by buffer flow for 300 s and a regeneration step consisting of an injection of 1 M NaCl for 30 s. The highest concentration of each series was injected twice to assess reproducibility. […]

complement factor C3b [2] = molecular target: T1, complement factor C3b; test: SPR, C3b amine-coupled (5610 RU), DAF-Fc as analyte
Description: 2600 RU of Bb were deposited by standard amine coupling onto a carboxymethyldextran sensorchip. Running buffer was PBS supplemented with 1 mM MgCl2 and 0.005% Tween 20. […] 5610 RU of C3b were deposited by standard amine coupling onto a carboxymethyldextran sensorchip. Running buffer was PBS supplemented with 1 mM MgCl2 and 0.005% Tween 20.

T1 sequence (P01024 23-667 limits assumed, chain 1 of 2): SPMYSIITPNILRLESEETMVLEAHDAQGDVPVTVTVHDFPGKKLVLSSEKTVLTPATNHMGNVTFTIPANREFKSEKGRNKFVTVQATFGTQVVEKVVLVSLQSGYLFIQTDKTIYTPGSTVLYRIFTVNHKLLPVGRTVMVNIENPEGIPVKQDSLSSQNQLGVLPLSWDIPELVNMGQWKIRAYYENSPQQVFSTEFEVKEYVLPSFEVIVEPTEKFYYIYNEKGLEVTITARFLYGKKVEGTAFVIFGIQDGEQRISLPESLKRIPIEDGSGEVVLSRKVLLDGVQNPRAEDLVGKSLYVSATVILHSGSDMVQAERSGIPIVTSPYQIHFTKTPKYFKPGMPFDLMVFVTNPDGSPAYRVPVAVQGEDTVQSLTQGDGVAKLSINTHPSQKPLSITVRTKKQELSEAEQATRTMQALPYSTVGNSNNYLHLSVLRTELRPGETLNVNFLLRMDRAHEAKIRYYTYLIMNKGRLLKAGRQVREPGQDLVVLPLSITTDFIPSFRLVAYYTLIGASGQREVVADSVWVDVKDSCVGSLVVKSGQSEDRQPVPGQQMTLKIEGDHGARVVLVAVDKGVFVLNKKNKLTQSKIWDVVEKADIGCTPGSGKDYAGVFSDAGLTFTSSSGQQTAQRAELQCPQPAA
T1 sequence (P01024 749-1663 limits assumed, chain 2 of 2): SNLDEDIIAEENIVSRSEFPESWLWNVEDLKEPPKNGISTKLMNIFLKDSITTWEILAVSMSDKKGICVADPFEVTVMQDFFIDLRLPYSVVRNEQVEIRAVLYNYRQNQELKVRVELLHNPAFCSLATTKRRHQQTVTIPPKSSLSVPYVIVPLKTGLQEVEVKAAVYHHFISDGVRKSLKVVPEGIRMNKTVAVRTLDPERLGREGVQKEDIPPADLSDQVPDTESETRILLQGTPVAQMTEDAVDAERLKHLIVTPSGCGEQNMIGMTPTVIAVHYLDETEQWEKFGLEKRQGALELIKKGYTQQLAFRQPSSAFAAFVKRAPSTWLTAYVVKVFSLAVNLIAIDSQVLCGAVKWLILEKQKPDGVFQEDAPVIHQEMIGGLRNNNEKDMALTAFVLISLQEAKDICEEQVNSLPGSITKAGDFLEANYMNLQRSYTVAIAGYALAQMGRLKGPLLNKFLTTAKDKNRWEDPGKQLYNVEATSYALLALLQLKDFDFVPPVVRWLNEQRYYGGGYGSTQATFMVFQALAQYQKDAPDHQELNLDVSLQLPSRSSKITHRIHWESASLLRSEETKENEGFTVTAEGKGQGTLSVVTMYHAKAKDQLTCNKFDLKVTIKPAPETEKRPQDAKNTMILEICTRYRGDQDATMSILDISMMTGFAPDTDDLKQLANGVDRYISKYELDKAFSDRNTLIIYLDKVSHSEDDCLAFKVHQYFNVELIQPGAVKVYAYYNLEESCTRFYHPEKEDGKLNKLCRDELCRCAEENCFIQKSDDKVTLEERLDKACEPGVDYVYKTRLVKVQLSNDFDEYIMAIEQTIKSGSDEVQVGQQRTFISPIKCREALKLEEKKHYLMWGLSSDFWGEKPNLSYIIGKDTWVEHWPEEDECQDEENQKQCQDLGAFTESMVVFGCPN

Row | fold increased affinity over miniFH (complement factor C3b [1]) [fold] | binding result (complement factor C3b [2]) | Binder
1 | ~2 | – | miniFH-Fc (Fc fusion, Produced in Pichia pastoris) EDCNELPPRRNTEILTGSWSDQTYPEGTQAIYKCRPGYRSLGNIIMVCRKGEWVALNPLRKCQKRPCGHPGDTPFGTFTLTGGNVFEYGVKAVYTCNEGYQLLGEINYRECDTDGWTNDIPICEVVKCLPVTAPENGKIVSSAMEPDREYHFGQAVRFVCNSGYKIEGDEEMHCSDDGFWSKEKPKCVEISCKSPDVINGSPISQKIIYKENERFQYKCNMGYEYSERGDAVCTESGWRPLPSCEEAGGGGGGGGGGGGGKCGPPPPIDNGDITSFPLSVYAPASSVEYQCQNLYQLEGNKRITCRNGQWSEPPKCLHPCVISREIMENYNIALRWTAKQKLYSRTGESVEFVCKRGYRLSSRSHTLRTTCWDGKLEYPTCAGPGGGGGPGCPAPELLGGPSVFLFPPKPKDTLMISRTPEVTCVVVDVSHEDPEVKFNWYVDGVEVHNAKTKPREEQYQSTYRVVSVLTVLHQDWLNGKEYKCKVSNKALPAPIEKTISKAKGQPREPQVYTLPPSREEMTKNQVSLTCLVKGFYPSDIAVEWESNGQPENNYKTTPPVLDSDGSFFLYSKLTVDKSRWQQGNVFSCSVMHEALHNHYTQKSLSLSPGGGGGGG
2 | – | no binding | DAF-Fc (Fc fusion, not shown: Fc module at the C-terminus) DCGLPPDVPNAQPALEGRTSFPEDTVITYKCEESFVKIPGEKDSVICLKGSQWSDIEEFCNRSCEVPTRLNSASLKQPYITQNYFPVGTVVEYECRPGYRREPSLSPKLTCLQNLKWSTAVEFCKKKSCPNPGEIRNGQIDVPGGILFGATISFSCNTGYKLFGSTSSFCLISGSSVQWSDPLPECREIYCPAPPQIDNGIIQGERDHYGYRQSVTYACNKGFTMIGEHSIYCTVNNDEGEWSGPPPECRGGGGGGPGCPAPELLGGPSVFLFPPKPKDTLMISRTPEVTCVVVDVSHEDPEVKFNWYVDGVEVHNAKTKPREEQYQSTYRVVSVLTVLHQDWLNGKEYKCKVSNKALPAPIEKTISKAKGQPREPQVYTLPPSREEMTKNQVSLTCLVKGFYPSDIAVEWESNGQPENNYKTTPPVLDSDGSFFLYSKLTVDKSRWQQGNVFSCSVMHEALHNHYTQKSLSLSPGGGGGGG

Reference: US20210355178A1 (UNIVERSIT T ULM, published 2021)
